# From patent US20130252987A1, “METHOD OF REGULATING PLASMA LIPOPROTEINS” (MCMASTER UNIVERSITY, priority 2010, published 2013)
# B1: human resistin: recombinant lyophilized purified human resistin (Calbiochem); cysteine-rich cytokine, single 12 kDa band (protein)
# chain: KTLCSMEEAINERIQEVAGSLIFRAISSIGLECQSVTSRGDLATCPRGFAVTGCTCGSACGSWDVRAETTCHCQCAGMDWTGARCCRVQP
# Experiments:
# HepG2 cells [1] = assay: real-time quantitative PCR of mRNA expression; assay type: cell-based, human
# Experimental: Total RNA was isolated from cell lysates (RNeasy Mini Kit, Qiagen, Germantown, Md.) and used as a template for cDNA synthesis (QuantiTech Reverse Transcription Kit, Qiagen, Germantown, Md.). Quantitative real-time PCR was performed using an Applied Biosystems 7300 Real Time PCR system (Carlsbad, Calif.) according to the manufacturer's instructions and with the SYBR green master kit (Qiagen, Germantown, Md.). Primers for the real-time PCR internal control gene cyclophilin A (sense, 5′-[…]-3′ (SEQ ID NO:3); antisense, 5′-[…]-3′ (SEQ ID NO:4)) were synthesized (IDT, Coralville, Iowa). Primers for succinate degydrogenase (SDH) (another real-time PCR internal control gene), apoB, microsomal triglyceride transfer protein (MTP), Srebp1, Srebp2, acetyl-coA carboxylase (ACC), HMG-coA reductase, HMG-coA synthase, squalene synthase (SS), the LDL receptor, PCSK9, fatty acid synthase (FAS), […] (SCD), DGAT1 and DGAT2 were purchased (proprietary sequences not available) (Qiagen, Germantown, Md.). The values reported for each mRNA were corrected to the cyclophilin A and SDH mRNA values.
# Total RNA was isolated from cell lysates (RNeasy Mini Kit, Qiagen, MD) and used as a template for cDNA synthesis (QuantiTech Reverse Transcription Kit, Qiagen, MD). Quantitative real-time PCR was performed using an Applied Biosystems 7300 Real-Time PCR system (Carlsbad, Calif.) according to the manufacturer's instructions and with the SYBR green kit (Qiagen, MD). Primers for the real-time PCR internal control gene cyclophilin A, as identified in Example 1, were synthesized (IDT, IA). Primers for succinate dehydrogenase (SDH) (another real-time PCR internal control gene), SREBP2, HMG-CoA reductase, the LDL receptor and PCSK9 were purchased (proprietary sequences not available) (Qiagen, MD). The values reported for each mRNA were corrected to the cyclophilin A and SDH mRNA values.
# rat primary hepatocytes = assay: cellular apoB100 protein expression in primary rat hepatocytes; assay type: cell-based; details: 50 ng/mL, 24 hours
# Experimental: (§1) Primary Cells: Fresh wild-type rat and mouse primary heptaocytes were supplied by CellzDirect (Invitrogen, NC) in a 6-well collagen coated plate. Upon arrival, the storage media was removed and incubation media (Williams E Medium, phenol red free, with incubation supplement pack, Gibco, NC) was added according to manufactures' instructions. The cells were incubated at 37° C. with 5% CO2 for 16 hours prior to human resistin (50 ng/mL) treatment for 24 hours. Cryopreserved plateable human hepatocytes, metabolism qualified from multiple normal human donors, were supplied by CellzDirect (Invitrogen, NC). Upon arrival, the cells (4-8 million in 1 mL), according to the manufacturer's instruction, were added to 48 mL warmed thawing medium (CHRM® Medium, Invitrogen, NC) and centrifuged at 100×g for 10 min at room temperature. The pellet was re-suspended in 4 mL plating medium (Williams E Medium, phenol red free, with maintenance supplement pack and 10% FBS, Gibco, NC). The cells were stained by Trypan Blue (Sigma, Canada) and counted by a haemocytometer, followed by seeding 1×10^6 cells/well in a 6-well collagen coated plate (CellzDirect, Invitrogen, NC). The cells were incubated at 37° C. with 5% CO2 for 4 hours to allow the cells to adhere. The plating media was replaced and cell incubated for 16 hours prior to human resistin treatment for 24 hours. […]
# [2] = test system: mouse primary hepatocytes; assay: cellular apoB100 protein expression in primary mouse hepatocytes; assay type: cell-based; details: 50 ng/mL, 24 hours
# Experimental: as §1
# HepG2 cells [3] = assay: electron microscopy of secreted VLDL fraction; assay type: cell-based, human; details: 50 ng/mL, 24 hours
# Experimental: The VLDL lipoprotein fraction was isolated from HepG2 cell media via ultracentrifugation at density of 1.006 g/mL using a Beckman Optima TL ultracentrifuge and 100.4 TLA rotor (Beckman Coulter, Brea, Calif.). Mean particle size for VLDL was then determined using the Hitachi 7000 electron microscope equipped with a AMT XR-60 digital camera. The fixation process for electron microscopy utilized 1% Os04 in a phosphate buffer at pH 7.4 applied to the VLDL fraction for a 30 minute exposure. A small drop of this solution was placed on a 400 mesh copper grid coated with a carbon film and allowed to stand for 3 minutes or until sample has dried. The fixed VLDL were placed on the electron microscope grid for viewing and digitizing. The captured images were taken at 75 KV using a beam current of 25 uA. Digital Images of the VDL were taken at about 50,000×. The mean particle size was then determined by importing the digital images into NIH image J software.
# The secretion of apoB protein by HepG2 cells increased markedly by approximately 8-fold with human resistin treatment, along with the observed increases in secreted VLDL lipids. […] Furthermore, the quantity of VLDL particles found in a representative […] area was increased markedly in resistin-treated samples by a mean of 10-fold.
molecule,measurement,setting,value
B1,apoB mRNA expression,"HepG2 cells [1]; 50 ng/mL, 24 hours",significant increase
same,expression of DGAT1,"HepG2 cells [1]; 50 ng/mL, 24 hours",increased to smaller but significant extents
same,expression of SCD,"HepG2 cells [1]; 50 ng/mL, 24 hours",increased to smaller but significant extents
same,expression of the LDL RECEPTOR gene,"HepG2 cells [1]; 50 ng/mL, 24 hours",increased
same,expression of the PCSK9 gene,"HepG2 cells [1]; 50 ng/mL, 24 hours",increased
same,increase in the expression of ACC,"HepG2 cells [1]; 50 ng/mL, 24 hours",3 fold
same,increase in the expression of HMG-CoA REDUCTASE,"HepG2 cells [1]; 50 ng/mL, 24 hours",2 fold
same,increase in the expression of HMG-CoA SYNTHASE,"HepG2 cells [1]; 50 ng/mL, 24 hours",2 fold
same,increase in the expression of SQUALENE SYNTHASE,"HepG2 cells [1]; 50 ng/mL, 24 hours",2 fold
same,mRNA expression of SREBP1,"HepG2 cells [1]; 50 ng/mL, 24 hours",significantly increased
same,mRNA expression of SREBP2,"HepG2 cells [1]; 50 ng/mL, 24 hours",significantly increased
same,apoB mRNA expression,"HepG2 cells [1]; 100 ng/mL dose, after dose-response increase from 0 to 50 ng/mL",decreased
same,increase in cellular apoB protein expression versus untreated control cells,rat primary hepatocytes,40-50%
same,increase in cellular apoB protein expression versus untreated control cells,[2],40-50%
same,increase in quantity of VLDL particles in a representative 100 cm^2 area,HepG2 cells [3],10 fold
